Results published in publication PMC212687.

Biological target: RAG1;RAG2;HMG (HMG-1/2) (;;) (UniProt P15919+P21784)
Experiment: EMSA
Conditions: Standard gel shift, conditions as in Fugmann et al. 2000b (not given in the material), three experiments

Sequence: GATCTGGCCTGGTCTGCACAGTGCAGATCTAGGAGACAAAAACCTGCACTCGAGCGGAG (double strand) [H-Sac-N]
- binding signal (relative to H-Sc-N) (about 3-fold reduced vs H-Sc-N): 0.33

Sequence: GATCTGGCCTGGTCTGCACAACCCTGTGACTCCCAAGAGAAACCTGCACTCGAGCGGAG (double strand) [Jβ2.6 12-RSS]
- binding signal (relative to Jβ2.2) (about 2-fold reduced): 0.5

Sequence: GATCTGGCCTGGTCTGCACAACCCTGTGACTCCCAACAAAAACCTGCACTCGAGCGGAG (double strand) [N (Jβ2.6 with consensus nonamer)]
- binding signal (relative to Jβ2.2) (up to level of Jβ2.2): 1

Sequence: GATCTGGCCTGGTTTGCACAGTCCTGGAAATGCTGGCACAAACCTGCACTCGAGCGGAG (double strand) [Jβ2.2 12-RSS]
- binding signal (relative to Jβ2.2): 1
